Laboratory results taken from doi:10.1101/2020.10.06.327627 (bioRxiv, 2020).

Biological target: T1, human TRAP1 (mitochondrial Hsp90) (human, UniProt Q12931 60-704)
T1 sequence (looked up): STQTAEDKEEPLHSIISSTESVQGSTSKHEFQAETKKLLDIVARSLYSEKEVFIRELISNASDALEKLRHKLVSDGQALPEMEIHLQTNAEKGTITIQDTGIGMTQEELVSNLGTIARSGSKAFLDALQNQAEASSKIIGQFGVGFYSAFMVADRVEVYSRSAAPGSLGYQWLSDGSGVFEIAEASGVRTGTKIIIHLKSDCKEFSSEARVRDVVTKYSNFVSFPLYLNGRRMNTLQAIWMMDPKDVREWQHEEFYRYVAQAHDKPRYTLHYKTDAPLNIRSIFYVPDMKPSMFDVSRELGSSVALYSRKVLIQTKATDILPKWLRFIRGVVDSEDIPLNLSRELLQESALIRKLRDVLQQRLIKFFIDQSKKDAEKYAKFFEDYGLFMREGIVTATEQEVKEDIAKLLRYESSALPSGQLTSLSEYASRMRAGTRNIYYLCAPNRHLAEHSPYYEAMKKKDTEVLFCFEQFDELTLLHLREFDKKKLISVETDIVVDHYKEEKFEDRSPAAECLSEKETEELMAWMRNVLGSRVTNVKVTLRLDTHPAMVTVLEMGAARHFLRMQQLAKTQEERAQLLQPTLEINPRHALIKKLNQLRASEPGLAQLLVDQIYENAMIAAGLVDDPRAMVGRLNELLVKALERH
Experiment: cell-based or functional assay

acceleration of TRAP1 ATPase activity, EC50: 6.6 µM | acceleration of TRAP1 dimer closure, inter-protomer FRET assay, EC50: 3.6 µM
B1: SdhB160 (truncated human succinate dehydrogenase B subunit, truncated at K160) (domain or fragment, UniProt P21912 29-160, looked up)
chain: AQTAAATAPRIKKFAIYRWDPDKAGDKPHMQTYEVDLNKCGPMVLDALIKIKNEVDSTLTFRRSCREGICGSCAMNINGGNTLACTRRIDTNLNKVSKIYPLPHMYVIKDLVPDLSNFYAQYKSIEPYLKKK
